Drawing on PMC3792054, “A Remote Palm Domain Residue of RB69 DNA Polymerase Is Critical for Enzyme Activity and Influences the Conformation of the Active Site”, this text covers binding result and Kd for two molecules.

Substitutions are numbered along the chain they refer to.

For one data set, the target named is T1, RB69 PolY567A/D714A Exo- (bacteriophage RB69, UniProt Q38087 1-903, D222A;D327A;Y567A;D714A).
T1 sequence: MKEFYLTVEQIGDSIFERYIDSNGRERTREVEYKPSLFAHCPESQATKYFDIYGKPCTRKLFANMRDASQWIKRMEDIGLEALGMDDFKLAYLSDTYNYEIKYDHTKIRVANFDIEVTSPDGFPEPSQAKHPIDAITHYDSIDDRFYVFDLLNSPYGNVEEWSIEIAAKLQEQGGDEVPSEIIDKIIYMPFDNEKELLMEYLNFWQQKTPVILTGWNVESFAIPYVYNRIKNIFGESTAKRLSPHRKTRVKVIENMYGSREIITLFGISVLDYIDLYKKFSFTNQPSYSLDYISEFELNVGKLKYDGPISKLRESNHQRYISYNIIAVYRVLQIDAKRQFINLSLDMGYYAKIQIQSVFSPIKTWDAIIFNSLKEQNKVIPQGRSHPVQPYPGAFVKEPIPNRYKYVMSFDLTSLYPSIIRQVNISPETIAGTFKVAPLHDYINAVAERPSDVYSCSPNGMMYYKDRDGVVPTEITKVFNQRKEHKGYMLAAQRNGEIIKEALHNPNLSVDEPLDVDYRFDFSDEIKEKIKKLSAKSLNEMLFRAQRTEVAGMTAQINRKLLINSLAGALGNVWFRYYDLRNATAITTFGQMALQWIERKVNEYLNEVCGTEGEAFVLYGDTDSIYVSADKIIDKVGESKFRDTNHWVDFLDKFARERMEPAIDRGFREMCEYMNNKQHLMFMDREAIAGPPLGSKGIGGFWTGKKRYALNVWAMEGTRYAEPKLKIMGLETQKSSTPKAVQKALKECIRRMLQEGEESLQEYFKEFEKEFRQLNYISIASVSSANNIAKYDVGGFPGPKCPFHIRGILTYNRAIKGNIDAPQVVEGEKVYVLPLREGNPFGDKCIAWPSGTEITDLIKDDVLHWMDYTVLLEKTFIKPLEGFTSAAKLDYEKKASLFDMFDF
The experiment in a line: X-ray crystallography; dGpnpp, Ca2+, Na+; ternary complex I, 2.30 A. As to conditions: protein: recombinant; template 5' overhang 4 nt and 3' overhang 1 nt.

The target of another data set is T2, RB69 PolD714A Exo+ (bacteriophage RB69, UniProt Q38087 1-903, D714A).
T2 sequence: T1 sequence with A222D, A327D, A567Y
The experiment in a line: EMSA; apparent Kd; EMSA: 50 nM DNA, 7.5-500 nM Exo+ or 2.5-400 nM Exo- polymerase, native 6% PAGE; buffer, pH and temperature as in ref. 16. To be noted: protein: recombinant; label: 5'-32P on primer (20-mer); 5' overhang 6 nt on template; other end blunt.

For data set [1], the target named is T3, RB69 DNA polymerase Pol+Exo+ (wild type gp43) (bacteriophage RB69, UniProt Q38087 1-903).
T3 sequence: T1 sequence with A222D, A327D, A567Y, A714D
Described as above. As to conditions: protein: recombinant; label: 5'-32P on primer (20-mer); 5' overhang 6 nt on template; other end blunt.

The target in a further data set is T4, RB69 Pol+Exo- (bacteriophage RB69, UniProt Q38087 1-903, D222A;D327A).
T4 sequence: T1 sequence with A567Y, A714D
Nature of the data set: EMSA; binds tighter than Pol+Exo+; value in Table 2/Figure 2E not in material; EMSA: 50 nM DNA, 7.5-500 nM Exo+ or 2.5-400 nM Exo- polymerase, native 6% PAGE; buffer, pH and temperature as in ref. 16. As to conditions: protein: recombinant; label: 5'-32P on primer (20-mer); 5' overhang 6 nt on template; other end blunt. On the technique in general: In EMSA bound probe runs differently from free probe, usually more slowly.

The target in the next data set is T5, RB69 PolD714A Exo- (bacteriophage RB69, UniProt Q38087 1-903, D222A;D327A;D714A).
T5 sequence: T1 sequence with A567Y
The experiment in a line: EMSA; almost same affinity as Pol+Exo-; value in Table 2/Figure 2E not in material; EMSA: 50 nM DNA, 7.5-500 nM Exo+ or 2.5-400 nM Exo- polymerase, native 6% PAGE; buffer, pH and temperature as in ref. 16. To be noted: protein: recombinant; label: 5'-32P on primer (20-mer); 5' overhang 6 nt on template; other end blunt.

B1: 13/18-mer primer-template (crystal) (dsDNA)
DNA 1: GCGGACTGCTTAC
DNA 2: TCACGTAAGCAGTCCGCG
As to B1, the binding result with RB69 PolY567A/D714A Exo- is reported as “binds”.

B2: 20*/26-mer primer-template (dsDNA)
DNA 1: AGCTACGCGGCTGTCATAAG
DNA 2: TTGCGTCTTATGACAGCCGCGTAGCT
With B2, the Kd is 141 nM in the data set with RB69 PolD714A Exo+ and 176 nM in data set [1]. The binding result in the data set with RB69 Pol+Exo- and with RB69 PolD714A Exo- was “binds” throughout.
